Measured values as given in paper PMC6995573.

Each substance was assayed against Human ornithine decarboxylase (human) (UniProt P11926) (assay: not given).
Sequence of Human ornithine decarboxylase (human) (P11926 2-421): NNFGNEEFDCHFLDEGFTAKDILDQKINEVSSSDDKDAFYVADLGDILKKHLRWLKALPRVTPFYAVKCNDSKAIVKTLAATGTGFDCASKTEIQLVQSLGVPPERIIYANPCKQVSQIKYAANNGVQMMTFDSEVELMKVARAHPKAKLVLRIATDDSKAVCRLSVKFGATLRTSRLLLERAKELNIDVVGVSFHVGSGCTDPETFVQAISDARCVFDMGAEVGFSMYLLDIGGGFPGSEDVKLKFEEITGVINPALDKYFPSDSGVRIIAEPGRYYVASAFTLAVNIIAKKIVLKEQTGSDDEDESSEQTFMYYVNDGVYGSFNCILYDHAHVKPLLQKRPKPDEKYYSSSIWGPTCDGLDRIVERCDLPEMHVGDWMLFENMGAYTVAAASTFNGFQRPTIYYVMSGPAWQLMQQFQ

IC50 of inhibition of ODC enzyme activity by AZ [nM] | Substance
250 | AZ3_S124D/Q150E/K166Q/D179N (natural protein)
290 | AZ3_S124D/Q150E/K166Q/S171H/D179N (natural protein)

These substances were tested against Human ornithine decarboxylase (human) (UniProt P11926) (assay: AUC; sedimentation velocity, 20 °C, 30 mM Tris-HCl pH 7.4, 25 mM NaCl; ODC fixed at 0.3 mg/mL, AZ 0.02-0.19 mg/mL (AZ/ODC molar ratio 0.25 to 3); all data sets fitted to the AB hetero-association model in SEDPHAT).

Kd [nM] | Substance
500 | AZ3_S124D/Q150E/K166Q/D179N (natural protein)
140 | AZ3_S124D/Q150E/K166Q/S171H/D179N (natural protein)

Biological target: Human ornithine decarboxylase (human) (UniProt P11926)
Assay: not given
Remark: another data set of the same source

IC50 of inhibition of ODC enzyme activity by AZ [nM] | Substance
650 | AZ3_N175C (natural protein)
660 | AZ3_N100R (natural protein)
980 | AZ3_Y145G (natural protein)
670 | AZ3_H129N (natural protein)
2050 | AZ3_D149P (natural protein)
810 | AZ3_R138S (natural protein)
700 | AZ3_T126K (natural protein)
1020 | AZ3_S127R (natural protein)
1210 | AZ3_T106E (natural protein)
780 | AZ3_G99D (natural protein)
480 | AZ3_Q150E (natural protein)
430 | AZ3_S171H (natural protein)
1340 | AZ3_Q177H (natural protein)
500 | AZ3_S124D (natural protein)
1380 | AZ3_N168R (natural protein)
720 | AZ3_D136G (natural protein)
670 | AZ3_A98D (natural protein)
420 | AZ3_K166Q (natural protein)
450 | AZ3_D179N (natural protein)
670 | AZ3_N178K (natural protein)
550 | AZ3_D112K (natural protein)
1230 | AZ3_R137G (natural protein)
